T1: EsCas13d, nuclease-dead (Eubacterium siraeum, UniProt B0MS50, R295A;H300A;R849A;H854A)
T1 sequence: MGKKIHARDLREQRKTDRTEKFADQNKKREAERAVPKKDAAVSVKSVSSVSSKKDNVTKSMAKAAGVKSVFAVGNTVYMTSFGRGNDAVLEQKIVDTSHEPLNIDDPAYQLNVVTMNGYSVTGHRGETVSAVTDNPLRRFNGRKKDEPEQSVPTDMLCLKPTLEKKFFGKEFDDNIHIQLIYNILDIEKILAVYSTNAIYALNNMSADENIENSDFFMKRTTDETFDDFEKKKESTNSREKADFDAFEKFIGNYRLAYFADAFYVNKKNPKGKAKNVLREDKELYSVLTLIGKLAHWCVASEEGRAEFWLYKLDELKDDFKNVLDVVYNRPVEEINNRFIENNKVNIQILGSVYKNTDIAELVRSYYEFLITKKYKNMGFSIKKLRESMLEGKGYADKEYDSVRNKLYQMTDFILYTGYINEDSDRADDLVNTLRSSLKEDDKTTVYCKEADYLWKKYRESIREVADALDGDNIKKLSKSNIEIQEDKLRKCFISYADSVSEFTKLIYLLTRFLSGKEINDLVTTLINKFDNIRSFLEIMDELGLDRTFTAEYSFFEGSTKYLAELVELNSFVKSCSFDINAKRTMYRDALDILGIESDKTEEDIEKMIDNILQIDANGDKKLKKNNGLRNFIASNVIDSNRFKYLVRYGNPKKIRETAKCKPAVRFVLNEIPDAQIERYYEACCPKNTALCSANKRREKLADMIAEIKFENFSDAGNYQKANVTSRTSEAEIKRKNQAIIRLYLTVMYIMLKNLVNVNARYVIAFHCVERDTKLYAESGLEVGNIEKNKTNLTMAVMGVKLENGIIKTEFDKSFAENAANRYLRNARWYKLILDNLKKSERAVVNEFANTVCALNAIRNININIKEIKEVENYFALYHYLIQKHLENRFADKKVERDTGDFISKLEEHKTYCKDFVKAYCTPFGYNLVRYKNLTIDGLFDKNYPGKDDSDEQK


target: T1, EsCas13d, nuclease-dead; assay: crRNA (strand 1, pre-loaded); Mg2+; 40 mM Tris-HCl pH 7.5, 150 mM NaCl, 6 mM MgCl2, 1 mM DTT, 0.1% Tween-20, 0.2 mg/ml BSA; 25 C; 10 min per concentration, then washed; conditions: tags: His6-TwinStrep-SUMO cleaved; N-terminal SNAP kept (SNAP-Surface 488); label: 3' end held by stalled T7 RNA polymerase

Binder	Kd [nM]
target 2 MT 5'PFS GUG 3'PFS ACA (mixed) RNA 1: CACCCGUGCAAAAUUGCAGGGGUCUAAAACCUUCUCCAAAUUGUUUCAUCCU RNA 2: GGGAAUGGAUCCACAUCUACGAAUUCGUGAGGAUGAAACAAUUUGGAGAAGACAAGAUCGGAAGAGCACACGU	10.3 ± 0.9
target 2 MT 5'PFS GGA 3'PFS UGA (mixed) RNA 1: CACCCGUGCAAAAUUGCAGGGGUCUAAAACCUUCUCCAAAUUGUUUCAUCCU RNA 2: GGGAAUGGAUCCACAUCUACGAAUUCGGAAGGAUGAAACAAUUUGGAGAAGUGAAGAUCGGAAGAGCACACGU	15.6 ± 3.1
target 2 MT 5'PFS AGG 3'PFS UCC (mixed) RNA 1: CACCCGUGCAAAAUUGCAGGGGUCUAAAACCUUCUCCAAAUUGUUUCAUCCU RNA 2: GGGAAUGGAUCCACAUCUACGAAUUCAGGAGGAUGAAACAAUUUGGAGAAGUCCAGAUCGGAAGAGCACACGU	26 ± 4
target 2 MT 5'PFS GGA 3'PFS CGC (mixed) RNA 1: CACCCGUGCAAAAUUGCAGGGGUCUAAAACCUUCUCCAAAUUGUUUCAUCCU RNA 2: GGGAAUGGAUCCACAUCUACGAAUUCGGAAGGAUGAAACAAUUUGGAGAAGCGCAGAUCGGAAGAGCACACGU	10.5 ± 1.2
target 2 MT 5'PFS GGG 3'PFS CCG (mixed) RNA 1: CACCCGUGCAAAAUUGCAGGGGUCUAAAACCUUCUCCAAAUUGUUUCAUCCU RNA 2: GGGAAUGGAUCCACAUCUACGAAUUCGGGAGGAUGAAACAAUUUGGAGAAGCCGAGAUCGGAAGAGCACACGU	11.6 ± 0.9
target 2 MT 5'PFS GCU 3'PFS AGC (mixed) RNA 1: CACCCGUGCAAAAUUGCAGGGGUCUAAAACCUUCUCCAAAUUGUUUCAUCCU RNA 2: GGGAAUGGAUCCACAUCUACGAAUUCGCUAGGAUGAAACAAUUUGGAGAAGAGCAGAUCGGAAGAGCACACGU	7.8 ± 1.4
target 2 MT 5'PFS ACG 3'PFS UCC (mixed) RNA 1: CACCCGUGCAAAAUUGCAGGGGUCUAAAACCUUCUCCAAAUUGUUUCAUCCU RNA 2: GGGAAUGGAUCCACAUCUACGAAUUCACGAGGAUGAAACAAUUUGGAGAAGUCCAGAUCGGAAGAGCACACGU	34 ± 15
target 2 MT 5'PFS CGG 3'PFS CUU (mixed) RNA 1: CACCCGUGCAAAAUUGCAGGGGUCUAAAACCUUCUCCAAAUUGUUUCAUCCU RNA 2: GGGAAUGGAUCCACAUCUACGAAUUCCGGAGGAUGAAACAAUUUGGAGAAGCUUAGAUCGGAAGAGCACACGU	6.6 ± 0.9
target 2 MT 5'PFS GGA 3'PFS CGA (mixed) RNA 1: CACCCGUGCAAAAUUGCAGGGGUCUAAAACCUUCUCCAAAUUGUUUCAUCCU RNA 2: GGGAAUGGAUCCACAUCUACGAAUUCGGAAGGAUGAAACAAUUUGGAGAAGCGAAGAUCGGAAGAGCACACGU	9.1 ± 0.9
target 2 MT 5'PFS CGG 3'PFS CUC (mixed) RNA 1: CACCCGUGCAAAAUUGCAGGGGUCUAAAACCUUCUCCAAAUUGUUUCAUCCU RNA 2: GGGAAUGGAUCCACAUCUACGAAUUCCGGAGGAUGAAACAAUUUGGAGAAGCUCAGAUCGGAAGAGCACACGU	7.2 ± 0.9
target 2 MT 5'PFS GGA 3'PFS UGU (mixed) RNA 1: CACCCGUGCAAAAUUGCAGGGGUCUAAAACCUUCUCCAAAUUGUUUCAUCCU RNA 2: GGGAAUGGAUCCACAUCUACGAAUUCGGAAGGAUGAAACAAUUUGGAGAAGUGUAGAUCGGAAGAGCACACGU	16.4 ± 1.6
target 2 MT 5'PFS UAG 3'PFS CUC (mixed) RNA 1: CACCCGUGCAAAAUUGCAGGGGUCUAAAACCUUCUCCAAAUUGUUUCAUCCU RNA 2: GGGAAUGGAUCCACAUCUACGAAUUCUAGAGGAUGAAACAAUUUGGAGAAGCUCAGAUCGGAAGAGCACACGU	4.4 ± 0.4
target 2 MT 5'PFS GGA 3'PFS CGU (mixed) RNA 1: CACCCGUGCAAAAUUGCAGGGGUCUAAAACCUUCUCCAAAUUGUUUCAUCCU RNA 2: GGGAAUGGAUCCACAUCUACGAAUUCGGAAGGAUGAAACAAUUUGGAGAAGCGUAGAUCGGAAGAGCACACGU	19.9 ± 3.1
target 2 MT 5'PFS AAG 3'PFS UAC (mixed) RNA 1: CACCCGUGCAAAAUUGCAGGGGUCUAAAACCUUCUCCAAAUUGUUUCAUCCU RNA 2: GGGAAUGGAUCCACAUCUACGAAUUCAAGAGGAUGAAACAAUUUGGAGAAGUACAGAUCGGAAGAGCACACGU	4.4 ± 0.5
target 2 MT 5'PFS CGG 3'PFS CUA (mixed) RNA 1: CACCCGUGCAAAAUUGCAGGGGUCUAAAACCUUCUCCAAAUUGUUUCAUCCU RNA 2: GGGAAUGGAUCCACAUCUACGAAUUCCGGAGGAUGAAACAAUUUGGAGAAGCUAAGAUCGGAAGAGCACACGU	6.1 ± 0.8
target 2 MT 5'PFS UAG 3'PFS CUU (mixed) RNA 1: CACCCGUGCAAAAUUGCAGGGGUCUAAAACCUUCUCCAAAUUGUUUCAUCCU RNA 2: GGGAAUGGAUCCACAUCUACGAAUUCUAGAGGAUGAAACAAUUUGGAGAAGCUUAGAUCGGAAGAGCACACGU	4.4 ± 0.5
target 2 MT 5'PFS UAG 3'PFS CUG (mixed) RNA 1: CACCCGUGCAAAAUUGCAGGGGUCUAAAACCUUCUCCAAAUUGUUUCAUCCU RNA 2: GGGAAUGGAUCCACAUCUACGAAUUCUAGAGGAUGAAACAAUUUGGAGAAGCUGAGAUCGGAAGAGCACACGU	3.8 ± 0.5
target 2 MT 5'PFS UAA 3'PFS UCC (mixed) RNA 1: CACCCGUGCAAAAUUGCAGGGGUCUAAAACCUUCUCCAAAUUGUUUCAUCCU RNA 2: GGGAAUGGAUCCACAUCUACGAAUUCUAAAGGAUGAAACAAUUUGGAGAAGUCCAGAUCGGAAGAGCACACGU	11.8 ± 1.4
target 2 MT 5'PFS UAA 3'PFS UCG (mixed) RNA 1: CACCCGUGCAAAAUUGCAGGGGUCUAAAACCUUCUCCAAAUUGUUUCAUCCU RNA 2: GGGAAUGGAUCCACAUCUACGAAUUCUAAAGGAUGAAACAAUUUGGAGAAGUCGAGAUCGGAAGAGCACACGU	6.2 ± 1
target 2 MT 5'PFS UAG 3'PFS CUA (mixed) RNA 1: CACCCGUGCAAAAUUGCAGGGGUCUAAAACCUUCUCCAAAUUGUUUCAUCCU RNA 2: GGGAAUGGAUCCACAUCUACGAAUUCUAGAGGAUGAAACAAUUUGGAGAAGCUAAGAUCGGAAGAGCACACGU	3.6 ± 0.5
target 2 MT 5'PFS UAA 3'PFS UCA (mixed) RNA 1: CACCCGUGCAAAAUUGCAGGGGUCUAAAACCUUCUCCAAAUUGUUUCAUCCU RNA 2: GGGAAUGGAUCCACAUCUACGAAUUCUAAAGGAUGAAACAAUUUGGAGAAGUCAAGAUCGGAAGAGCACACGU	6.8 ± 1.7
target 2 MT 5'PFS GUG 3'PFS ACC (mixed) RNA 1: CACCCGUGCAAAAUUGCAGGGGUCUAAAACCUUCUCCAAAUUGUUUCAUCCU RNA 2: GGGAAUGGAUCCACAUCUACGAAUUCGUGAGGAUGAAACAAUUUGGAGAAGACCAGAUCGGAAGAGCACACGU	20.8 ± 2.1
target 2 MT 5'PFS GAA 3'PFS UCA (mixed) RNA 1: CACCCGUGCAAAAUUGCAGGGGUCUAAAACCUUCUCCAAAUUGUUUCAUCCU RNA 2: GGGAAUGGAUCCACAUCUACGAAUUCGAAAGGAUGAAACAAUUUGGAGAAGUCAAGAUCGGAAGAGCACACGU	12.7 ± 3.2
target 2 MT 5'PFS GGA 3'PFS CGG (mixed) RNA 1: CACCCGUGCAAAAUUGCAGGGGUCUAAAACCUUCUCCAAAUUGUUUCAUCCU RNA 2: GGGAAUGGAUCCACAUCUACGAAUUCGGAAGGAUGAAACAAUUUGGAGAAGCGGAGAUCGGAAGAGCACACGU	9.8 ± 0.8
target 2 MT 5'PFS UAG 3'PFS UAU (mixed) RNA 1: CACCCGUGCAAAAUUGCAGGGGUCUAAAACCUUCUCCAAAUUGUUUCAUCCU RNA 2: GGGAAUGGAUCCACAUCUACGAAUUCUAGAGGAUGAAACAAUUUGGAGAAGUAUAGAUCGGAAGAGCACACGU	2.94 ± 0.19
target 1 G13A,U19C (mixed) RNA 1: CACCCGUGCAAAAAUGCAGGGGUCUAAAACUGAGCGGAUAACCUCUCUAUGG RNA 2: GGGAAUGGAUCCACAUCUACGAAUUCGUACCACAGAGAAGUUAUCCGCUCACCGAGAUCGGAAGAGCACACGU	30 ± 6
target 1 insU 3' of 20,insC 3' of 9 (mixed) RNA 1: CACCCGUGCAAAAAUGCAGGGGUCUAAAACUGAGCGGAUAACCUCUCUAUGG RNA 2: GGGAAUGGAUCCACAUCUACGAAUUCGUACCAUUAGAGAGGUUACUCCGCUCACCGAGAUCGGAAGAGCACACGU	22.6 ± 1.1
target 1 insU 3' of 2,insU 3' of 1 (mixed) RNA 1: CACCCGUGCAAAAAUGCAGGGGUCUAAAACUGAGCGGAUAACCUCUCUAUGG RNA 2: GGGAAUGGAUCCACAUCUACGAAUUCGUACCAUAGAGAGGUUAUCCGCUCUAUCCGAGAUCGGAAGAGCACACGU	10.7 ± 0.6

— PMC10786891, “Massively parallel profiling of RNA-targeting CRISPR-Cas13d”
